According to publication PMC6624267:

B1: CARD9^2−97 (CARD9 CARD alone), wild type [human] / itself (parent)
chain: SDYENDDECWSVLEGFRVTLTSVIDPSRITPYLRQCKVLNPDDEEQVLSDPNLVIRKRKVGVLLDILQRTGHKGYVAFLESLELYYPQLYKKVTGK

Variants of: B1
Experiment: polymerization assay (absorbance at 350 nm)
Details: with itself; 1 mM D43R/K58D + EDTA (parent trace is 150 uM WT + EDTA); 50 mM Tris, 150 mM NaCl, 0.5 mM TCEP, pH 7.0; 25 °C; read off a plot

Variant | response
SDYENDDECWSVLEGFRVTLTSVIDPSRITPYLRQCKVLNPRDEEQVLSDPNLVIRDRKVGVLLDILQRTGHKGYVAFLESLELYYPQLYKKVTGK | 1.7 A350
